Assay: label from the status in PepcDB records

Row | Sequence | protein production
1 | MKIILANPRGFCAGVDRAISIVELALEIHGAPIYVRHEVVHNRFVVNGLRERGAIFVEELSEVPDGAIVIFSAHGVSQAVRQEAKDRNLKVFDATCPLVTKVHMQVARASRKGTKAILIGHKGHPEVEGTMGQYSNEDGGIFLIEKVEDIARLPMQENDNLTFMTQTTLSLDDTAETIAALKEKYPAIQGPHKNDICYATTNRQEAVRELAKLSDLVLVVGSKNSSNSNRLAELASRMGVKSQLLDEPADIQADWFNDVKTIGITAGASAPEELGQSIISRLKRFGAN | failed
2 | MKIIVVGCGKIGYTIAKVLSEKKDIDVTVVDNNPNIFDKMVEPIDVIFISGNGANEKTLIEAGAKDADLIVSTTNADELNVLCCIMAERLGTKHSIARVRNPEYMLEFNKLWKDLGIDMVINPERQTAREISRILRYHAADDIVTFIGDRVELVSFKVSETPEYFVGKSVSQIFDNNMGILLAIVERENQALIPNGDLIFKESDIIWIMGRPSQIMKFFTLIKKGPKKGQEIMVIGGGKITHYLVELLNRHTTKANIKIIKKDRSKCESLYEALSSASLERRCLFIHGDGTNEELLIDEGIDTMDACVCLTDRDEENVFISLYAMRRGVKKVITKINYIHQNMAKSLGLWLGNIITPQYITAKTVIRYVDGLSGAVGRNIMTIHQIYSGDDGNVDAIEFQVNKKAKCIDTPIKKLKLKKGILIGCISRDFDIIIPSGETEIHIGDRVIIFSKNNDIRDLDDILEN | failed
3 | MKIKPPLPTVTRTHARALRKELTDAERALWRCLRSNQLHDFKFRRQHPIPPYIADFCCIDAALIIELDGSQHQASSDQARTRWLQSKGWTVLRFWNNDVLFSLDAVVETIFKMVATPYPHPNPSPGGRGA | failed
4 | MKILSVSYIYLLMGISSYSYANFDLGINEFNAPNELTELSELNTSNDNNAIIELINSTNSQVTIIQHNVNKTGSNKAKVKQTGYDNTAAVMQLGSNNVGLIAQNGTNNLATLKQLGFNHEGAILQEGNDNIAHLVQTGNGKQNVVNQTGDSNIAAAVNKNNGAGFSINQTGNQGIILVNGMDRFISIVN | failed
5 | MKILVAFDGSDGAQKALGFAINFSKDCERMIVLYVSRDIISESGRLTYIPDTALERRDSEDEAILARARSILASSNIPFEIIKKNSDGVDVSKVIADTAKELECNMIITGTRKLRGLSKYLLGSVSAGIIAISNVPVIVVP | failed
6 | MKILVCITHVPDTTSKITFADNKFNTAGVQFIIGPYDEYALSRAVELKEQSGGTVTVLNVGDAETEPTIRKALAIGADDAIRINAVPKDAGFVAAQIAAVAKSGGYDLILMGRESIDYNGGLVHGLVADALGMPCVTPIMKLDIENGVAKMTREIEGGKESVECALPFVAGCQEPIAEWKIPNMRGIMSARTKPLNVVEPVVVADDVVYGTFSLPAPKGACKMIDAANPEELLTLLRNEAKVL | failed
7 | MKILWLIILVNLFLSCGNESKEKSNLGLRLRELEISGGGSESKIEVYKEFIEKEDKNILKIVNSIDKKARFFNLIGLEFFKLGQYGPAIEYFAKNLEINPNNYLSHFYIGVASYNLAKNLRVKDEVEKYIILAENSFLKSLSIRDDFKDSLFAISNMYVYDLDKQLEAKNYLNKLGDMGEDYFEFLMLRGANYYSLGDLGNAILFYDKASKKASTEEQKEGVSRIMSNLK | failed
8 | MKILYIVLDGAADSPTSPRKTLEEASKPNIDSLGSHAVCGMVYTVKPGVAPQSDYATLSLLGYNPDEYYPGRGPLEAFGAGIEMRRGDIALRANFATVDPGTLRIIDRRVGRSLTSREARELASAVDGMELEDGEGTALFRATIGHRGVLVLRHRSKPLSDAISNTDPAYERRGRFSVALEKYEPFIKLSNPLVEDEAAVLAARMLNEFTLKAVEILDSHPVNLAREKRGLLKANAILSRDAGGLPEEKPPSFQERFGLRGASIVEMVVERGISRYIGLDDIRVEIEGRAREEVYREEAARAVEALETHDLVYVHLKGPDEPGHDGSFEGKIRAVEDIDKHFFAPLLDRLSSAGLEPAFVVTSDHATPWDVGAHSGDPVPLMISHQSIQGSIGKFSETVCLRGRLGTIIGGYRIIPKTLSLLAG | not failed
9 | MKIMKTFALSSIASAAMLFCSSALAADGTITVDGKVTDRTCTINGGTPNFSVTMPTVSFSSLNGEGKTSARTPFTIELTNCTAGSTVATYFEPGPAVDINTSRLINQAPTASAATNVQVQLLGSNGSVIPIKAVGTTGAQDNSQWVAVNASGAASMHYYTEYYATGVSTAGSVVTNIQYTIIYQ | failed
10 | MKIMTKALNRTTLGLALGLASSQLLAAGFALNEQSISGMGTGFAGRSSSADDASTVFGNPAGMSRIKREQISVGAAAVIAKTDIDNGRGTFGGSNDGDMVPVVGVPMGYYVKPIDDHWAFGLGVYVPFGLVTDYEKGFAGRYWGDKSHVQIVTFQPTVSYAFNDKVSIGFGPTINRIDGELTSAVPNRASLGTNDGKVKIKGDDTAIGFNAGILVQATDTTRLGLTYHSKVDYKLEGKTKVEGSGFGPFGGQKYDASLDISTPESVDFSITQQLDENWTVYAGSTWTRWSRLKDITVENSGVPTALASSIGTITEEQDWHDTWAHAIGASYKVNKEWTLRTGFSVDQSPTNNVNRSPRIPTGDRKIISFGAGWSPTDDLTIDVAYSYLREDETKIRDSSATKGSYSADYRNTAHGLGTSVTYRF | failed
11 | MKINLDRTSSGFCIGVQGTIHVAEEKLAQSGELYCLGDVVHNEVEVKRLEALGMETIDIPAFEELRNAEVLIRAHGEPPSTYETARKNNLAITDTTCPVVAKLQRTAKMLHQLGYQVVIYGKKVHPEVIGINGQCDDEGVVIKHPDLSDPEEIAPLDLSRKTALISQTTMDVPGFYELKRNLEKLFAEHGHRNPGTQSGEWMAVRDIDITAEKTGALAMPKLVFKDTICRQVSSRNGKLRDFALANDCIVFAAGRKSSNGQVLYSICKDANPHSYFIEDVDEIRPEWFVGENGKPVESVGICGATSTPMWLLEKVANYIDKTFGDGSSNPNA | failed
12 | MKINPRVIYLSIVFIFLVIMASNVAVADDLEAEKLTKVASNVALDSNPVWSPDGKEILFSRENGLYKVFSDGTGEMKLTSTKGKNFTSDYAWSPDGSKISYIENRYDTAAGPRSDLWIMNSNGEGKKQLLDTIWYRYYYIYTWFPTGSKILYAEIYEEIGGSYWEMDSDGSNKHNIGNMGIANGIALSPDASKIAICAHGPADVDYYIDVGKVGKDLTSFRYGLITHQTQSRQSQIWAPDGSKIVYYAGKNESYYEDENSEIYIVKADGTGRIQLTSDSANDNSPVFSPDGSKIVFVSDKAGNEDIWIMDADGKNKVQLTSDPASDSFPVWSPDGKKIAFWSNRGGNNNIYTLTLENEKTPVAAFCASQTSGNAPLKVSFTDKSTGTPTSWSWSFGDGKTSTLKNPLHIYSKAGKYTVSLTVKNAAGTNMKTITKYITVKTAPVKPIAAFSASPGSGKTPLKVKFTDTSTGTPTAWRWNFGDGSKSFLQNPIHKYSKTGIYTVDLTVKNAAGRNTVTKTDYITVVTKPVAEFSATPTTGKLPLTVEFTDKSTGVPTGWIWSFGDGTISREQNPKHQYLQEGKYKIILSVTNVAGSSTIKKINYIRVTTNTRPRIL | failed
13 | MKIRPFLVALGLTTFAGAAHGANFEDLTQLLSTKKCPLCDLRGAGLVMVNLTRADLTGADLSGANLSGADLTGANLSGANLTSASLNGANLSGANLNGAITDGTDFREAYFDRATFINTNLETAYMQGAKAVPNTAGTPQLFYGWGLLETSKGNYQSALNHYDQALALDPEFAPGYLGRGLTLLKIGNEASAKQNVEYAQLLFEENQDEVGVKTSEQFLEDLANMQEARRQGAGNPQLDAIVRGVASMAFKYLLPLVGL | failed
14 | MKISAIKTWLPLLIIIVLLGLFLGLGLNKYVSFASLRDNHEWLIAITKSHFYLVSFVFIIIYTVAVALSIPGAIFLTLIGGFLFGILWGTFLVVLSATLGATILFFAVQSSLGEVFSKRASGWVKRMRSGFKDNAFSYLLTLRLIPLFPFWVINIVSAVLGVSASTFIIATFIGIIPGSIVYVSVGNGLGELFAASLQPNLGIIFEPKFILPLLGLAALSLIPVFYKKKGKQGTEKMKDKDLFCDLAIIGGGSAGLSIAAGCSQLGLQVVLVEPNKMGGDCLNYGCIPSKTLLNTAKIFYQTKHSTVLGIQAKSVKIDFLQVMQQVHNVIACIAKNDSVERFTSLGVQVIQEAGHFIGPKQFKLKRKIIRAKHFVIATGSSPAIPPIQNLNKVSYLTNETIFNLKVQPEHLIVIGGGPIGCELAQAFAMLGSKVTILEAFTILPKDDADCVAIIRSQLESMQIALYEQIKINKIEESADKTISVHLENQDNPITITGSHLLVSTGRVANVDGLGLEKAGVQYTTRGINTNARLQTTNKKIYAIGDVTGPYQFTHMASYQAGIALRNIAFKWPAKVDYKAVPWVTYTEPELAHVGLLASEALKDPTLKITEFAFAEVDRAQAENKVNGKIKIITGKKAKILGVSIVGAHAGELILPWVIAVKERKSLRTFTDAIAAYPTFSEISKRVAGEYYKPFIFSSKIRTFVRWLNKLG | failed
15 | MKISELGYDRAFLQLFDGNDFQLYDHQRMAIEQIRKGRNVVVSVPTAAGKTLIAYSAIYETFQRNLKSIYIVPLRSLAMEKFSELSRLRDLGLKVKMSIGDYDDSPDFIKRYDAVILTSEKADSLLHHDPYILNDVGLLVLDEIHTIGDESRGPTLETVASIARYVNPDVRILALSATVSNAMELASWLDASLIKSDFRPVPLKTGILYRDQLYLDGKRRSGVSINQIIRETVEDNGQVLMFVSSRKKAEDTARDLAQIFGSDANIKISSDETNVYDDMLNEILPRGVAFHHAGLSNDQRAFIEREFRARRIKVIVATPTLAAGVNLPARLVIVRDITRWGSDGISYLTNMEIKQMIGRAGRPGYDQYGIGLIYVSSQSSYEAAKDYLSTDPEPVVSYLGNEAKVRFNTLAAISMGLARSPSDIMKFYETTLFFSQNGKDLLEEKISASLKFLEKNGFIKQSPDLRTTQLGKVTSDLYIDPESALRLVDFFDGPADVDHAIYYISLCREIVPFNIKDDYSAMEFLDDIGLIDGDIDAAKTAIVLRDWISEASYKYLYDKYGIAPGDMQARISMADWLSYSLAKLSSIYKPEVRRMLEILNLRIKEGIREDILQLVLIPGVGRVRARRLYDAGLRSIEDVASASPDRIKAIYGFSDTLANAIIRRARTIASKEVR | failed
16 | MKITVFGATGNVGNRVITEALLRGHEITAVLRNNARANEFDSSVKVVIGHADNVDDVVKWSDGQDLIISATRPPQGLESQLVDTAKALLSGLAQTKVRLLLVGGAASLTVPNSNGMLVVDDTDLVPTAWRDIALACLAQHKLCQENESVDWSYISPPAVIVPGERTGIFRTGSDELLVDEQGQSTISLEDFAIALLDEAEVVKHKRKRFTVAYLEHHHHHH | failed
17 | MKITWFGHACFALEMEGKTIVTDPFDESVGYPIPNVTADVVTESHQHFDHNAHHLVKGNFRVIDRPGAYTVNGVKIKGVETFHDPSHGRERGKNIVFVFEGEGIKVCHLGDLGHVLTPAQVEEIGEIDVLLVPVGGTYTIGPKEAKEVADLLNAKVIIPMHYKTKYLKFNLLPVDDFLKLFDSYERVGNILELFEKPKERKVVVMEVQ | not failed
18 | MKIVAITSCPNGIAHTYMAQEKLEQVAKEMGVDIKVETQGGVGAENVLTTQDIEEADGVIIAADKQVDLSRFVGKRLINENVREGIHNPRGLIQRIINQDAPIY | not failed
19 | MKKAAAYTFCFLLLSGVGIILFMDIHPAFGGIPTTEQKEAYRELDNYVDGNFVNDVPTRRAFVDPSDTTSTTNTSASEVKDRNPVSPIPVYVIDWNKINSENDSLTWFGHSAFLLNVDNKQLLIDPMLGPVVSPVSFVGRNRYEYSEDIMLHLIDEMPPIDAVLITHDHYDHLDYRSIVKLNNKVSHFFVPLGCSAHLIRWGIPEEKITELNWWEETEYQGLTVALTPSRHSSGRNPFNIDTTLWGGWVILGNKTRVYTSGDSGYGPHFKQIGDKYGPFDITLIEGAQYDRNWPDLHMVPEQAIQANLDVGGKTMMLMHWGAFTLANHAWNEPIERALKEAKIREVNIIAPMIGETVLLDSDLQTSPTSWWDF | failed

From a protein production outcome set (Wang et al. 2014)
